Numbered stars: 1 amine (or outer) side, 2 acyl side, 3 side chain; on linkers, the order of the positions; unused ones are H or OH. Square brackets hold non-standard residues; d marks the D form. Side chains are listed from the residue outwards. Ends that are not written are not given here. * marks the point of attachment. C20 diacid = O=C(O)CCCCCCCCCCCCCCCCCCC(=O)*; γGlu = O=C(O)[C@H](CCC(=O)[*:2])N[*:1]; αMeL = CC(C)C[C@](C)(N)C(=O)O; αMeK = C[C@](N)(CCCCN)C(=O)O; AEEA = NCCOCCOCC(=O)O; Aib = CC(C)(N)C(=O)O
T1: human GIP receptor (human, UniProt P48546 22-466)
T1 construct: whole, on cells; Used as crude membranes of stably transfected CHO cells; also called hGIPR
T1 sequence (looked up): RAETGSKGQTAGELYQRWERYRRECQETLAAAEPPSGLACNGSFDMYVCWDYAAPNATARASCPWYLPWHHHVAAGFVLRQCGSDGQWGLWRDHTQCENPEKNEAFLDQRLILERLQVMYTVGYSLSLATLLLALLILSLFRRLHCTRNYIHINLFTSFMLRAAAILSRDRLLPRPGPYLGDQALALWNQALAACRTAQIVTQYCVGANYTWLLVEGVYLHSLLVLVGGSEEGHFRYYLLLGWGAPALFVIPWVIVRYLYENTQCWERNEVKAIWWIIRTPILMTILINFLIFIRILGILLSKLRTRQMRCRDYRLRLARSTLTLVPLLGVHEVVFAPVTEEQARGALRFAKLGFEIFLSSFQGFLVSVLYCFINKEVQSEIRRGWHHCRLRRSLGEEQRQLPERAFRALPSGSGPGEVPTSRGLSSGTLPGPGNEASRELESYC

B1: Example 59 (peptide)
peptide: YXEGTFTSDYSIXLDEKAQXAFIEYLIEGGPSSGAPPPS
modifications: Aib2; αMeL13; K17((2-[2-(2-Amino-ethoxy)-ethoxy]-acetyl)2-(γ-Glu)-CO-(CH2)18-CO2H); Aib20; C-terminal NH2
B2: Example 20 (peptide)
peptide: YXEGTFTSDYSIXLDKKAQXAFIEYLIEGGPSSGAPPPS
modifications: Aib2; αMeL13; K17((2-[2-(2-Amino-ethoxy)-ethoxy]-acetyl)2-(γ-Glu)-CO-(CH2)18-CO2H); Aib20; C-terminal NH2
B3: Example 61 (peptide)
peptide: YXEGTFTSDYSIXLDSKAQXAFIEYLLEGGPSSGAPPPS
modifications: Aib2; αMeL13; K17((2-[2-(2-Amino-ethoxy)-ethoxy]-acetyl)2-(γ-Glu)-CO-(CH2)18-CO2H); Aib20; C-terminal NH2
B4: Example 53 (peptide)
peptide: HXEGTFTSDYSIXLDKKAQXAFIEYLIEGGPSSGAPPPS
modifications: Aib2; αMeL13; K17((2-[2-(2-Amino-ethoxy)-ethoxy]-acetyl)2-(γ-Glu)-CO-(CH2)18-CO2H); Aib20; C-terminal NH2
B5: Example 21 (peptide)
peptide: Y[Aib]EGTFTSDYSI[αMeL]LDEK([AEEA-AEEA-γGlu-C20 diacid])AQ[αMeK]AFIEYLLEGGPSSGAPPPS-NH2
modifications: N-terminus assumed
SMILES: CC[C@H](C)[C@H](NC(=O)[C@H](Cc1ccccc1)NC(=O)[C@H](C)NC(=O)[C@](C)(CCCCN)NC(=O)[C@H](CCC(N)=O)NC(=O)[C@H](C)NC(=O)[C@H](CCCCNC(=O)COCCOCCNC(=O)COCCOCCNC(=O)CC[C@H](NC(=O)CCCCCCCCCCCCCCCCCCC(=O)O)C(=O)O)NC(=O)[C@H](CCC(=O)O)NC(=O)[C@H](CC(=O)O)NC(=O)[C@H](CC(C)C)NC(=O)[C@](C)(CC(C)C)NC(=O)[C@@H](NC(=O)[C@H](CO)NC(=O)[C@H](Cc1ccc(O)cc1)NC(=O)[C@H](CC(=O)O)NC(=O)[C@H](CO)NC(=O)[C@@H](NC(=O)[C@H](Cc1ccccc1)NC(=O)[C@@H](NC(=O)CNC(=O)[C@H](CCC(=O)O)NC(=O)C(C)(C)NC(=O)[C@@H](N)Cc1ccc(O)cc1)[C@@H](C)O)[C@@H](C)O)[C@@H](C)CC)C(=O)N[C@@H](CCC(=O)O)C(=O)N[C@@H](Cc1ccc(O)cc1)C(=O)N[C@@H](CC(C)C)C(=O)N[C@@H](CC(C)C)C(=O)N[C@@H](CCC(=O)O)C(=O)NCC(=O)NCC(=O)N1CCC[C@H]1C(=O)N[C@@H](CO)C(=O)N[C@@H](CO)C(=O)NCC(=O)N[C@@H](C)C(=O)N1CCC[C@H]1C(=O)N1CCC[C@H]1C(=O)N1CCC[C@H]1C(=O)N[C@@H](CO)C(N)=O
B6: Example 66 (peptide)
peptide: YXEGTFTSDYSIXLDEKAQXAFIEYLLEGGPSSGAPPPS
modifications: Aib2; αMeL13; K17((2-[2-(2-Amino-ethoxy)-ethoxy]-acetyl)2-(γ-Glu)-CO-(CH2)18-CO2H); Aib20; C-terminal NH2
B7: Example 54 (peptide)
peptide: H[Aib]EGTFTSDYSI[αMeL]LDKK([AEEA-AEEA-γGlu-C20 diacid])AQHAFIEYLIEGGPSSGAPPPS-NH2
modifications: N-terminus assumed
SMILES: CC[C@H](C)[C@H](NC(=O)[C@H](CC(C)C)NC(=O)[C@H](Cc1ccc(O)cc1)NC(=O)[C@H](CCC(=O)O)NC(=O)[C@@H](NC(=O)[C@H](Cc1ccccc1)NC(=O)[C@H](C)NC(=O)[C@H](Cc1c[nH]cn1)NC(=O)[C@H](CCC(N)=O)NC(=O)[C@H](C)NC(=O)[C@H](CCCCNC(=O)COCCOCCNC(=O)COCCOCCNC(=O)CC[C@H](NC(=O)CCCCCCCCCCCCCCCCCCC(=O)O)C(=O)O)NC(=O)[C@H](CCCCN)NC(=O)[C@H](CC(=O)O)NC(=O)[C@H](CC(C)C)NC(=O)[C@](C)(CC(C)C)NC(=O)[C@@H](NC(=O)[C@H](CO)NC(=O)[C@H](Cc1ccc(O)cc1)NC(=O)[C@H](CC(=O)O)NC(=O)[C@H](CO)NC(=O)[C@@H](NC(=O)[C@H](Cc1ccccc1)NC(=O)[C@@H](NC(=O)CNC(=O)[C@H](CCC(=O)O)NC(=O)C(C)(C)NC(=O)[C@@H](N)Cc1c[nH]cn1)[C@@H](C)O)[C@@H](C)O)[C@@H](C)CC)[C@@H](C)CC)C(=O)N[C@@H](CCC(=O)O)C(=O)NCC(=O)NCC(=O)N1CCC[C@H]1C(=O)N[C@@H](CO)C(=O)N[C@@H](CO)C(=O)NCC(=O)N[C@@H](C)C(=O)N1CCC[C@H]1C(=O)N1CCC[C@H]1C(=O)N1CCC[C@H]1C(=O)N[C@@H](CO)C(N)=O

Tests used:
[1] = biological target: T1, human GIP receptor; test: SPA, [125I]-GIP displacement, hGIPR membranes
[2] = biological target: T2, human glucagon receptor (human, UniProt P47871 26-477); test: SPA, [125I]-Gcg displacement, hGcgR membranes
T2 construct: whole, on cells; Used as crude membranes of stably transfected HEK293 cells; also called hGcgR; hGLcgR

[3] = biological target: T3, human GLP-1 receptor (human, UniProt P43220 24-463); test: SPA, [125I]-GLP-1 displacement, hGLP-1R membranes
T3 construct: whole, on cells; Used as crude membranes of stably transfected HEK293 cells; also called hGLP1R; hGLP-1R

T2 sequence (P47871 26-477): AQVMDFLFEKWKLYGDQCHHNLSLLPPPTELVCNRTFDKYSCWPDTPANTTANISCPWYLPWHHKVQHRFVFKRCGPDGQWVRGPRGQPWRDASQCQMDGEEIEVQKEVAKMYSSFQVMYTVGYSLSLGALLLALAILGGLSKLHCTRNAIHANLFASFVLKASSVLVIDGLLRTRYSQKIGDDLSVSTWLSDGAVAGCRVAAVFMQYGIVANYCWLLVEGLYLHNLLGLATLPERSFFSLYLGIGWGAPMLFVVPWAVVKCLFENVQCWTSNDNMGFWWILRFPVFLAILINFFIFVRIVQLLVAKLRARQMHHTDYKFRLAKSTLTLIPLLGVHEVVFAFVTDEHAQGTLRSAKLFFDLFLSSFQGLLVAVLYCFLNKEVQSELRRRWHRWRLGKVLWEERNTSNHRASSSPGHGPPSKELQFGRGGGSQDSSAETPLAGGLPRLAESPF

Binder | Ki [1] | Ki [2] | Ki [3]
B1 | 0.136 nM | 292 nM | 8.2 nM
B2 | 0.0849 nM | 228 nM | 3.3 nM
B3 | 0.102 nM | 110 nM | 11.1 nM
B4 | 0.188 nM | 216 nM | 1.23 nM
B5 | 0.529 nM | 149 nM | 14.5 nM
B6 | 0.106 nM | 93.7 nM | 7.53 nM
B7 | 0.965 nM | 333 nM | 1.66 nM
